Numbering of substitutions follows the chain as printed. Names may count otherwise. Blank lines part the entries; values can stand above or below the binder they belong to.
What was measured:
[1] = molecular target: T1, recombinant human LAG3 expressed with a C-terminal myc-myc-hexahistidine tag (human, UniProt P18627 29-450); assay: SPR, mAb captured, 25 C
T1 construct: also called hLAG3-mmh; hLAG3.mmh
Description: (§1) The BiaCore sensor surface was derivatized with either a polyclonal rabbit anti-mouse antibody (GE, # BR-1008-38) or with a monoclonal mouse anti-human Fc antibody (GE, # BR-1008-39) to capture approximately 50-85 RUs of anti-LAG3 monoclonal antibodies, expressed with either a mouse Fc or a human Fc, respectively. […] The binding of the LAG3 reagents to captured monoclonal antibodies was monitored for 4 minutes while their dissociation from the antibodies was monitored for 8 minutes in HBST running buffer (0.01 M HEPES pH 7.4, 0.15 M NaCl, 3 mM EDTA, 0.05% v/v Surfactant P20). Experiments were performed at 25° C. and 37° C. Kinetic association (kₐ) and dissociation (kd) rate constants were determined by processing and fitting the data to a 1:1 binding model using Scrubber 2.0c curve fitting software. Binding dissociation equilibrium constants (KD) and dissociative half-lives (t_{1/2}) were then calculated from the kinetic rate constants as: KD (M)=kd/kₐ and t_{1/2} (min)=[ln2/(60*kd)].

[2] = molecular target: T2, recombinant human LAG3 expressed with a C-terminal mouse IgG2a mFc tag (human); assay: SPR, mAb captured, 25 C
T2 construct: Called dimeric; also called hLAG3-mFc; hLAG3 dimer
T2 chain: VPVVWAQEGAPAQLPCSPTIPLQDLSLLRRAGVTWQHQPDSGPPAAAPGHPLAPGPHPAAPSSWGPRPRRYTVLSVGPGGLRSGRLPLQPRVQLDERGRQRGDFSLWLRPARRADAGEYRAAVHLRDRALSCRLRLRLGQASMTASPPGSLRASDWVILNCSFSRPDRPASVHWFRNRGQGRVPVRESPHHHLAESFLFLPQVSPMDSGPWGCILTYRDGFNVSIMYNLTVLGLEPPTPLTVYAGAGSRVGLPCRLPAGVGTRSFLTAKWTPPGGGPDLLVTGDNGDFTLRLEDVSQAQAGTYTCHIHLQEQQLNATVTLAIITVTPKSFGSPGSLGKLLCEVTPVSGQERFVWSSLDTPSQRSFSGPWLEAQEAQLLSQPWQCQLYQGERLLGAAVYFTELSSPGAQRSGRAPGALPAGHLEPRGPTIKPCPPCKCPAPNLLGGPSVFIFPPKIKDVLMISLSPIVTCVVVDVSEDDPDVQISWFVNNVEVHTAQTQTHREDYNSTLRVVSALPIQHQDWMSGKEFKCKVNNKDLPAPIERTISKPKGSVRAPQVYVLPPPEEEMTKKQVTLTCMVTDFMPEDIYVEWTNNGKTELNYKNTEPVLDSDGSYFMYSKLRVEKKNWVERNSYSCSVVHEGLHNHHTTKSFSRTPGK
Description: as §1

[3] = molecular target: T3, human LAG3 expressed on HEK293 cells (human, UniProt P18627 23-525); assay: cell adherence assay, blocks RAJI (human MHCII) cells on HEK293-hLAG3
T3 construct: also called hLAG3; HEK293/hLAG3
T3 sequence: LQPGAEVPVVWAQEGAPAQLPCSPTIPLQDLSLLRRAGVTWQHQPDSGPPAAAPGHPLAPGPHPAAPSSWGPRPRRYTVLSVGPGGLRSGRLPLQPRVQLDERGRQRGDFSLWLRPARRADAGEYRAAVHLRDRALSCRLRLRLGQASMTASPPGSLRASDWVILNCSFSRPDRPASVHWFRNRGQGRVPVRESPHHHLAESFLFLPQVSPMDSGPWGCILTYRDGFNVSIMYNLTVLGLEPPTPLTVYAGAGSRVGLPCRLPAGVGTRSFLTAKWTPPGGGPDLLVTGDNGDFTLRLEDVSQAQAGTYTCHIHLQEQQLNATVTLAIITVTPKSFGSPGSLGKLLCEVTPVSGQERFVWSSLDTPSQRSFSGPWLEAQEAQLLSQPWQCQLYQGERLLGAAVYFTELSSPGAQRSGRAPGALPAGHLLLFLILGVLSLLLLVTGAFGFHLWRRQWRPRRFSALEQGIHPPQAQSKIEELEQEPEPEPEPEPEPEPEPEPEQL
Description: Cells were plated into sterile Nunclon™ Delta 96-Well MicroWell™ Black Optical Bottom Plates (Thermo Scientific). The wells from the perimeter of the plate were not included in the assay design to avoid edge effects.
On the day of treatment, all antibodies were serially (1:3) diluted in RPMI media (without FBS or supplements added). The 9-point dilution ranged between 45 pM to 300 nM, with the last dilution point containing no mAb. […] While the plated HEK293-LAG3 cells were incubating with the test or control antibodies, non-adherent B-cells (RAJI or A20) were labeled with Calcein AM using the following procedure. RAJI and A20 suspension cells were harvested and centrifuged at 1,200 rpm for 5 minutes. Cell pellets were resuspended in 1×PBS and counted. Cells were washed with RPMI, and resuspended in RPMI at a concentration of 10⁶ cells per 1 ml. Cells were labeled by adding 5 μL of Calcein AM per 1 ml of cell suspension and incubated for 30 min at 37° C., at 5% CO₂. […] Subsequently, 10 μL of BD Pharmingen Fc Block (0.5 mg/mL) was added per 1 ml of the Calcein AM labeled cells, which were incubated at RT for 10 minutes. The Calcein AM-stained, Fc-blocked RAJI or A20 cells were resuspended in RPMI to a final concentration of 3×10⁶ cells per 1 ml and subsequently used in the adherence assay.
The labeled suspension cells were incubated with the HEK293 monolayer for 1 hour at 37° C., at 5% CO₂.

B2: H4H15482P (antibody, human IgG4 S228P, kappa)
heavy: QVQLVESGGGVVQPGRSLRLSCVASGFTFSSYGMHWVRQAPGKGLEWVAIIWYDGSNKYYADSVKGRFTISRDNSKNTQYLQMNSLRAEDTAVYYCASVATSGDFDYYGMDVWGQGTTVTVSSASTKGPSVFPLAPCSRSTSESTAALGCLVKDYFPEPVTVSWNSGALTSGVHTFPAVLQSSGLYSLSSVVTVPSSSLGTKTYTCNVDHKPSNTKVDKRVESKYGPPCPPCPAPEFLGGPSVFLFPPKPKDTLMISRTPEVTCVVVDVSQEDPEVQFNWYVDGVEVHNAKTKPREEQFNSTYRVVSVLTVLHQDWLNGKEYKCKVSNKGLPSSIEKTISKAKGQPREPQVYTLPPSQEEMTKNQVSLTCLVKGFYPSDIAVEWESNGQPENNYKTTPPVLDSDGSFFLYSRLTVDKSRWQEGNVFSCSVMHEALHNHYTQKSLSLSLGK
light: EIVLTQSPATLSLSPGERTTLSCRASQRISTYLAWYQQKPGQAPRLLIYDASKRATGIPARFSGSGSGTGFTLTISSLEPEDFAVYYCQQRSNWPLTFGGGTKVEIKRTVAAPSVFIFPPSDEQLKSGTASVVCLLNNFYPREAKVQWKVDNALQSGNSQESVTEQDSKDSTYSLSSTLTLSKADYEKHKVYACEVTHQGLSSPVTKSFNRGEC
notes: H4H = human IgG4 Fc with S108P
Kd [1]: 0.972 nM | t1/2 [1]: 0.995 h | Kd [2]: ≤ 0.0132 nM | t1/2 [2]: ≥ 19.2 h | IC50 [3]: 15 nM

B3: H4H15479P (antibody, human IgG4, V domains shown)
VH: QVQLQQWGAGLLNPSETLSLTCAVYGGAFSDYYWNWIRQPPGKGLEWIGEINHRGSTNYNPSLKSRVTISVDTSKNQFSLRMSSVTAADAAVYYCARGEDYDIWNGYYQEKWGQGTLVTVSS
VL: EIVLTQSPATLSLSPGERATLSCRASQSISTYLAWYQQKPGQAPRLLIYDASKRATGIPARFSGSGSGTDFTLTISSLEPEDFVVYYCHQRSNWPLTFGGGTKVEIK
Kd [1]: 0.0493 nM | koff [1]: 5.35e-05 s⁻¹ | kon [1]: 1.09e+06 M⁻¹ s⁻¹ | t1/2 [1]: 3.6 h | Kd [2]: ≤ 0.00435 nM | koff [2]: ≤ 1e-05 s⁻¹ | kon [2]: 2.3e+06 M⁻¹ s⁻¹ | t1/2 [2]: ≥ 19.2 h | IC50 [3]: 31 nM

B4: H4H14813N (antibody, human IgG4, V domains shown)
VH: QVQLQQWGAGLLKPSETLSLTCAVYGGSFSGYYWNWIRQPPGKGLEWVGEISHRGSTNYNPSLKSRVTISLDTSKNQFSLKLTSVTAADTAVYYCSRDEELEFRFFDYWGQGTLVTVSS
VL: B3 VL with I29V, T31S, I48V, D50G, K53N, V84A, V85F, H89Q
notes: H4H = human IgG4 Fc with S108P hinge mutation
Kd [1]: 0.214 nM | koff [1]: 8.8e-05 s⁻¹ | kon [1]: 411000 M⁻¹ s⁻¹ | t1/2 [1]: 2.19 h | Kd [2]: ≤ 0.0104 nM | koff [2]: ≤ 1e-05 s⁻¹ | kon [2]: 958000 M⁻¹ s⁻¹ | t1/2 [2]: ≥ 19.2 h | IC50 [3]: 17 nM

B5: H4H15483P (antibody, human IgG4, V domains shown)
VH: QVQLQQWGAGLLPPSETLSLICAVYGGSFSGYYWSWIRQPPGKGLEWIGEINHRGSTNYNPSLKSRATISVDTSKNQFSLKLSSVTAADTAVYYCSRGEDYYDSSGYSYYFDYWGQGTLVTVSS
VL: B3 VL with I29V, T31S, K53N, V84A, H89Q
notes: as for B4
Kd [1]: 1.97 nM | koff [1]: 0.00037 s⁻¹ | kon [1]: 188000 M⁻¹ s⁻¹ | t1/2 [1]: 0.52 h | Kd [2]: ≤ 0.00745 nM | koff [2]: ≤ 1e-05 s⁻¹ | kon [2]: 1.34e+06 M⁻¹ s⁻¹ | t1/2 [2]: ≥ 19.2 h | IC50 [3]: 19 nM

B7: H4H15498P2 (antibody, human IgG4, V domains shown)
VH: EVQLVESGGGLVQPGGSLRLSCAASGFTFTSYAMTWVRQAPGKGLEWVSDISGSGGRTYYADSVKGRFTISRDNSKNMLYLQMNILRAEDTAVYHCAKGTGQQVDLYNYYYALDVWGQGTTVTVSS
VL: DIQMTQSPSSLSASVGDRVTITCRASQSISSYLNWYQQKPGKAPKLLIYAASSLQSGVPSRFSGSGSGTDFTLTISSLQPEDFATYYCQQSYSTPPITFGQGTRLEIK
notes: as for B4
Kd [1]: 0.26 nM | koff [1]: 7.81e-05 s⁻¹ | kon [1]: 301000 M⁻¹ s⁻¹ | t1/2 [1]: 2.46 h | Kd [2]: ≤ 0.0276 nM | koff [2]: ≤ 1e-05 s⁻¹ | kon [2]: 363000 M⁻¹ s⁻¹ | t1/2 [2]: ≥ 19.2 h | IC50 [3]: 15 nM

B8: H4H17819P (antibody, human IgG4, V domains shown)
VH: EVQLVESGGGLVQPGGSLRLSCVASGFTFSLYAMTWVRQVPGKGLEWVSTISGSGGGTYYTDSVKGRFTISRDNSKNTLYLQMNSLRADDTAVFYCTKESTTGTYSYFYGMDVWGQGTTVTVSS
VL: DIQMTQSPSSLSASVGDRVTITCRASQTISSYLNWYQQKPGKAPKLLIYAASSLQSGVPSRFSGSGSGTDFTLTLSGLQPEDFATYYCQQSYSTPLTFGGGTKVEIK
notes: as for B4
Kd [1]: 0.391 nM | koff [1]: 0.000443 s⁻¹ | kon [1]: 1.13e+06 M⁻¹ s⁻¹ | t1/2 [1]: 0.433 h | Kd [2]: 0.124 nM | koff [2]: 0.00018 s⁻¹ | kon [2]: 1.45e+06 M⁻¹ s⁻¹ | t1/2 [2]: 1.07 h | IC50 [3]: 17 nM

More lines, now with the values ahead:

Kd [1]: 1.23 nM | t1/2 [1]: 0.742 h | Kd [2]: ≤ 0.0141 nM | t1/2 [2]: ≥ 19.2 h | IC50 [3]: 3.3 nM
B1: H4sH15482P (antibody, human IgG4 S228P, kappa)
heavy: QVQLVESGGGVVQPGRSLRLSCVASGFTFSSYGMHWVRQAPGKGLEWVAIIWYDGSNKYYADSVKGRFTISRDNSKNTQYLQMNSLRAEDTAVYYCASVATSGDFDYYGMDVWGQGTTVTVSSASTKGPSVFPLAPCSRSTSESTAALGCLVKDYFPEPVTVSWNSGALTSGVHTFPAVLQSSGLYSLSSVVTVPSSSLGTKTYTCNVDHKPSNTKVDKRVESKYGPPCPPCPAPPVAGPSVFLFPPKPKDTLMISRTPEVTCVVVDVSQEDPEVQFNWYVDGVEVHNAKTKPREEQFNSTYRVVSVLTVLHQDWLNGKEYKCKVSNKGLPSSIEKTISKAKGQPREPQVYTLPPSQEEMTKNQVSLTCLVKGFYPSDIAVEWESNGQPENNYKTTPPVLDSDGSFFLYSRLTVDKSRWQEGNVFSCSVMHEALHNHYTQKSLSLSLGK
light: B2 light
notes: H4sH = modified human IgG4 Fc; also called mAb1

Kd [1]: 0.645 nM | koff [1]: 0.000101 s⁻¹ | kon [1]: 157000 M⁻¹ s⁻¹ | t1/2 [1]: 1.9 h | Kd [2]: ≤ 0.0352 nM | koff [2]: ≤ 1e-05 s⁻¹ | kon [2]: 284000 M⁻¹ s⁻¹ | t1/2 [2]: ≥ 19.2 h | IC50 [3]: 16 nM
B6: H4sH15498P2 (antibody, V domains shown)
VH: B7 VH
VL: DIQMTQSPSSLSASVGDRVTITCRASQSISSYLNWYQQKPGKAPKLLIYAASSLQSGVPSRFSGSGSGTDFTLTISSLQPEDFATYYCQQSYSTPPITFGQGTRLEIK
notes: H4sH = human IgG4 Fc with 2 or more amino acid changes as disclosed in US20140243504

Kd [1]: 0.429 nM | koff [1]: 0.000447 s⁻¹ | kon [1]: 1.04e+06 M⁻¹ s⁻¹ | t1/2 [1]: 0.43 h | Kd [2]: 0.174 nM | koff [2]: 0.000218 s⁻¹ | kon [2]: 1.26e+06 M⁻¹ s⁻¹ | t1/2 [2]: 0.882 h | IC50 [3]: 8.6 nM
B9: H4H17823P (antibody, human IgG4, V domains shown)
VH: EVQLLESGGGLVQPGGSLRLSCAASGFTFRSYAMSWVRQAPGKGLEWVSVISGGGGRTYYTDSVKGRFTISRDNSKSMLYLQMNSLRAEDTAIYYCAKERVTGIDHYYYGVDVWGQGTTVTVSS
VL: B8 VL with T28S, A51T, G66A, T74A, L75I, G77S, S93T
notes: as for B4

Kd [1]: 10.2 nM | koff [1]: 0.00457 s⁻¹ | kon [1]: 450000 M⁻¹ s⁻¹ | t1/2 [1]: 0.0417 h | Kd [2]: 0.817 nM | koff [2]: 0.000564 s⁻¹ | kon [2]: 691000 M⁻¹ s⁻¹ | t1/2 [2]: 0.342 h | IC50 [3]: 27 nM
B10: H4H17826P2 (antibody, human IgG4, V domains shown)
VH: EVQLVESGGGLVQPGGSLRLSCAASGFTFSSYEMNWVRQAPGKGLEWVSYISSSGNTKDYAGSVKGRVTISRDNAKNLLYLQMNSLRAEDTAVYHCARDGGHYDILTGSMSYYYYALDVWGQGTTVTVSS
VL: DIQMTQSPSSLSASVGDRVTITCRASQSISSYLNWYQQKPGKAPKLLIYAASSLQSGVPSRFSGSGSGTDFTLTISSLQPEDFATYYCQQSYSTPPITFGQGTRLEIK
notes: as for B4

Kd [1]: 0.177 nM | koff [1]: 7.89e-05 s⁻¹ | kon [1]: 445000 M⁻¹ s⁻¹ | t1/2 [1]: 2.44 h | Kd [2]: 0.0106 nM | koff [2]: 1.9e-05 s⁻¹ | kon [2]: 1.8e+06 M⁻¹ s⁻¹ | t1/2 [2]: 10.1 h | IC50 [3]: 6 nM
B11: H4sH14813N (antibody, human IgG4 S228P, kappa, V domains shown)
VH: B4 VH
VL: EIVLTQSPATLSLSPGERATLSCRASQSVSSYLAWYQQKPGQAPRLLVYGASNRATGIPARFSGSGSGTDFTLTISSLEPEDFAFYYCQQRSNWPLTFGGGTKVEIKR
notes: H4sH = modified human IgG4 Fc

Reference: patent US20170101472A1 (Regeneron, published 2017)
